Measured values reported in patent US20130004429A1.
Ends that are not written are not given here. * marks the point of attachment. Biotin = O=C1N[C@H]2[C@H](CS[C@H]2CCCCC(=O)*)N1

Molecular target: tubulin (rat)
Assay: cell-based or functional assay

Biotin-YSSYSAPVSSSLSVRRSYSSSSGS [NFL-TBS40-63 peptide, biotinylated]
cells with altered microtubule network (immunocytochemistry), 9L rat glioma cells: 76.7% | cells with altered microtubule network (immunocytochemistry), F98 rat glioma cells: 82% | cells with altered microtubule network (immunocytochemistry), rat neurons: 8.5% | cells with altered microtubule network (immunocytochemistry), rat primary astrocytes: 4.7%
